These results are taken from patent publication US20220213221 (published 2022).

Like-named read-outs stand apart in the source and are kept apart here.

For assay [1], the target named is T1, RhoA T19N (human, UniProt P61586).
The target of a further assay is RhoA Q63L (human, UniProt P61586).
For another assay, the target named is T2, RhoC Q63L (human, UniProt P08134).
T2 chain: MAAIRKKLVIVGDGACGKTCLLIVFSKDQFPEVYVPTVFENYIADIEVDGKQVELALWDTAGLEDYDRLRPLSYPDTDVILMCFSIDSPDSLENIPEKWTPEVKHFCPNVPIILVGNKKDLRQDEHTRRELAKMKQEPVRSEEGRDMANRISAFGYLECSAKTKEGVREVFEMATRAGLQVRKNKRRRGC

A further assay concerns the target T3, RhoB Q63L (human, UniProt P62745).
T3 chain: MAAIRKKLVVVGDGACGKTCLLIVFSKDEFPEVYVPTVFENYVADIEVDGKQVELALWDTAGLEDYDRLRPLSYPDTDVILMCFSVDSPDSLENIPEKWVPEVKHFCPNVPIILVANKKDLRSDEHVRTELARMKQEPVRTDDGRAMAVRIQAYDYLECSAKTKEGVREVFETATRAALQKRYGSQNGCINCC

The target of assay [2] is RhoA wild type GDP-loaded (human, UniProt P61586). In words: ELISA. (In general: An ELISA detects its analyte on a solid surface through an enzyme-linked reagent.)
Assay [3] addresses T1, RhoA T19N. Kind of assay: ELISA.

T1 sequence (P61586 1-190 T19N): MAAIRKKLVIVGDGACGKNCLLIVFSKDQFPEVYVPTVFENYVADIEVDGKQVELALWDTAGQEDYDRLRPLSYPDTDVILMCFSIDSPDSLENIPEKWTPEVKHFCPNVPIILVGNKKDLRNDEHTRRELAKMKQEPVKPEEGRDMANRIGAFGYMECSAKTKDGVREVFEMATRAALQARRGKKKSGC

B1: 5SNP48 (antibody, V domains shown)
VH: VQLQASGGGFVQPGGSLRLSCAASGTSWFTEVMGWFRQAPGKEREFVSAISGLHDVGTYYADSVKGRFTISRDNSKNTVYLQMNSLRAEDTATYYCAALDKWYTKAMDARKDYWGQGTQVTVSS
Consider B1, for which the binding result with RhoA T19N [1] was “no binding”.

B2: 4SNP36 (antibody, V domains shown)
VH: VQLQASGGGFVQPGGSLRLSCAASGTSWKDYTMGWFRQAPGKEREFVSAISEGPGAQYYYADSVKGRFTISRDNSKNVYLQMNSLRAEDTATYYCAYSSWQPYVSYWGQGTQVTVSS
In general, Kd refers to the free concentration of one partner at which half of the binding sites on the other are occupied at equilibrium, for simple one-to-one binding. A low value points to a tighter complex. Regarding B2, the Kd was found to be 0.296 nM with RhoA Q63L, 0.0831 nM with RhoC Q63L and 0.278 nM in the assay with RhoB Q63L.

B3: 5SNP65 (antibody, V domains shown)
VH: VQLQASGGGFVQPGGSLRLSCAASGATYEGEAMGWFRQAPGKEREFVSAISSYPSVISYYADSVKGRFTISRDNSKNTVYLQMNSLRAEDTATYYCAYWVNHEGTIREIYWGQGTQVTVSS
As for B3, in the assay with RhoA T19N [1], the binding result was “no binding”.

B4: H12 (antibody, V domains shown)
VH: VQLQASGGGFVQPGGSLRLSCAASGDGSRIYAMGWFRQAPGKEREFVSAISWEQDWEHYYADSVKGRFTISRDNSKNTVYLQMNSLRAEDTATYYCAAFMTPHRNLTSMYWGQGTQVTVSS
Regarding B4, the binding result (in assay [2]; with RhoA T19N [3]) was “no binding” each time. Moreover, the values for the Kd with RhoA Q63L and in the assay with RhoC Q63L were 0.265 nM and 0.0479 nM, respectively.

B5: B6 (antibody, V domains shown)
VH: VQLQASGGGFVQPGGSLRLSCAASGYGSTIETMGWFRQAPGKEREFVSAISRAPGPSQYYADSVKGRFTISRDNSKNTVYLQMNSLRAEDTATYYCAPINNRTMQDSMFLWNYWGQGTQVTVSS
In the case of B5, the Kd in the assay with RhoB Q63L was determined as 0.71 nM.
